Values of other authors, collected in patent publication US20230313258A1, “CROSS-LINIKING METHODS” (The University of Bath, priority 2020, published 2023).

Target: dimeric AP-1 transcription factor (Homo sapiens, UniProt P05412)
Conditions: previously identified (Mason et al. 2006)

Chain of dimeric AP-1 transcription factor (P05412 whole entry): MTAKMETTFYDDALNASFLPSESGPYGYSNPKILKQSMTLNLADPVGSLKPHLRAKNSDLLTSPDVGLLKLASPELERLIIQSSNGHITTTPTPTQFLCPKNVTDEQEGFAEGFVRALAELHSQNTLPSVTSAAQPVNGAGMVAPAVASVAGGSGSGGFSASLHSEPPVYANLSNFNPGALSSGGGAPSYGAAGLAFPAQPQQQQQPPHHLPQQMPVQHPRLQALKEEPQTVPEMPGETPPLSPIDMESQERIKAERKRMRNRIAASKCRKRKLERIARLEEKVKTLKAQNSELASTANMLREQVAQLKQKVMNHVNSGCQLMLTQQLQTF

Question: With “FosW: parent peptide, SEQ ID NO: 1, ASLDELQAEIEQLEERNYALRKEIEDLQKQLEKLGAP; previously identified inhibitor of AP-1” as the substance, how does the “ability to dissociate AP-1 from its DNA binding site” value read?
Answer: The value was “able to dissociate the dimeric AP-1 transcription factor from its DNA binding site”.
